One series relates to S2-CP8 cells. In words: Combination therapy assay, S2-CP8 xenograft tumors. Type of series: in vivo, mice. The settings on record: single agent. As for the experimental part: Hv1Lt1 antibody or control IgG (280 µg/dose) was intraperitoneally administered twice a week. Gemcitabine (100 µg/dose, once weekly) or nab-PTX (10 mg/kg, twice weekly) was intraperitoneally administered. While lenvatinib (1 mg/kg) or a 0.5% (wt/vol) methylcellulose 400 solution was orally administered once a day, 6 days per week, tumor formation was continued for an additional 21 days, after which the mice were euthanized. The volume and weight of the excised tumors were measured.

The subject of the next series is HeLa S3 cells. Kind of series: Propidium iodide nuclear staining / apoptosis. Type of series: cell-based, human.
The target in series [1] is T1, human CKAP4 extracellular region (465-602 amino acids) (human, UniProt Q07065 465-602).
T1 construct: also called extracellular region of CKAP4; extracellular domain of CKAP4
T1 sequence: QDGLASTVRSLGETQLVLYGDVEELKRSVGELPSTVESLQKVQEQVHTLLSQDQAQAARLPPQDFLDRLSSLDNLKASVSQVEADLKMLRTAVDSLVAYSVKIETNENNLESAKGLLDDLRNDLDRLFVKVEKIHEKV
Kind of series: SPR (Biacore T200, 25 C), antibody captured on anti-human IgG CM5 chip, CKAP4 465-602 as analyte, 1:1 Langmuir fit.

The target of series [2] is T2, CKAP4 in lysates of mouse lung cancer cells Lewis Lung Carcinoma (LLC) (mouse, UniProt Q8BMK4 1-575).
T2 construct: also called mouse CKAP4; endogenous CKAP4 (mouse tissues)
T2 sequence (looked up): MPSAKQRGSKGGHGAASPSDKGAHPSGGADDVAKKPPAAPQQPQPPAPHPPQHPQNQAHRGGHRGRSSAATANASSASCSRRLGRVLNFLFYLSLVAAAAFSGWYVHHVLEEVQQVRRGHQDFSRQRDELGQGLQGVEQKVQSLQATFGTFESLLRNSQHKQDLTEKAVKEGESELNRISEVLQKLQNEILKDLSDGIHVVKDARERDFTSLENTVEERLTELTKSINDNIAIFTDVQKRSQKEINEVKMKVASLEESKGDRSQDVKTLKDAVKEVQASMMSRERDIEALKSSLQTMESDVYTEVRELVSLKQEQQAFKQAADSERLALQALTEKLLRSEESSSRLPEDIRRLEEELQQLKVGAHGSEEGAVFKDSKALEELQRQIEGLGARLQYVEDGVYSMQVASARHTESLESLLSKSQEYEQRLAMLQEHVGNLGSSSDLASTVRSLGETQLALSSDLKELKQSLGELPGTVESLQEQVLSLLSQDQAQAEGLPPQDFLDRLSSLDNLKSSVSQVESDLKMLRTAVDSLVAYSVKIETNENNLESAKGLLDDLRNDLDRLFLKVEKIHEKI
Kind of series: blot of LLC cell lysate.

In series [3] the target is T1, human CKAP4 extracellular region …. In words: SPR (Biacore T200, 25 C), antibody captured on anti-mouse IgG CM5 chip, CKAP4 465-602 as analyte, 1:1 Langmuir fit.

In the case of `Nc1ccn([C@@H]2O[C@H](CO)[C@@H](O)C2(F)F)c(=O)n1` [gemcitabine], the “antitumor effects in vivo as single agents” value with S2-CP8 cells was “antitumor effects”.
`CN[C@@H]1C[C@H]2O[C@@](C)([C@@H]1OC)n1c3ccccc3c3c4c(c5c6ccccc6n2c5c31)C(=O)NC4` [staurosporine]: the “nuclear staining with propidium iodide” value in the series with HeLa S3 cells is given as “strongly stained”.

B1: Humanized anti-CKAP4 antibody Hv1Lt1 (antibody, human IgG1, V domains shown)
VH: QVQLVQSGAEVKKPGASVKVSCKASGFTFTSYWMHWVRQAPGQGLEWIGNINPSNGGTNYNAKFKSRVTMTRDTSTSTVYMELSSLRSEDTAVYYCARWVSFSYRGAMDYWGQGTLVTVSS
VL: EIVLTQSPDFQSVTPKEKVTITCRASRAIRNNLHWYQQKPDQSPKLLIKYVSQSISGVPSRFSGSGSGTDFTLTINSLEAEDAATYYCQQSDSWPYTFGQGTKLEIK
notes: also called HvlLtl; Humanized antibody Hv1Lt1
In series [1], B1 showed a Kd of 0.761 nM, a koff of 1.14e-05 s⁻¹ and a kon of 15000 M⁻¹ s⁻¹.

B2: Humanized anti-CKAP4 antibody Hv2Lt1 (antibody, human IgG1, V domains shown)
VH: QVQLVQSGAEVKKPGASVKVSCKASGYTFTSYWMHWVRQAPGQGLEWMGIINPSNGGTSYAQKFQGRVTMTRDTSTSTVYMELSSLRSEDTAVYYCARWVSFSYRGAMDYWGQGTLVTVSS
VL: EIVLTQSPDFQSVTPKEKVTITCRASRAIRNNLHWYQQKPDQSPKLLIKYVSQSISGVPSRFSGSGSGTDFTLTINSLEAEDAATYYCQQSDSWPYTFGQGTKLEIK
notes: also called Hv2Ltl; Humanized antibody Hv2Ltl
As to B2, the binding result in series [2] was “binds”. In addition, in series [1], the affinity, expressed as Kd, was 0.0449 nM; the koff stood at 1.7e-06 s⁻¹; the kon turned out to be 37900 M⁻¹ s⁻¹.

B3: Mouse anti-CKAP4 antibody 3F11-2B10 (antibody, V domains shown)
VH: VQLQQQPGTELVKPGASVKLSCKASGFTFTSYWMHWVKQRPGQGLEWIGNINPSNGGTNYNAKFKSKATLTVDKSSSTAYMQLSSLTSEDSAVYYCARWVSFSYRGAMDYWGQGTSVTVSS
VL: DIVLTQSPAILSVTPGDGVSLSCRASRAIRNNLHWFQQKSHESPRLLIKYVSQSISGIPSRFSGSGSGTDFTLSVDSVETEDFGVYFCQQSDSWPYTFGGGTKLEIK
notes: Mouse monoclonal antibody; also called Mouse antibody 3F11-2B10; original mouse anti-CKAP4 antibody
In series [3], B3 had a Kd of 14.5 nM, a dissociation rate constant (koff) of 0.0018 s⁻¹ and a kon of 125000 M⁻¹ s⁻¹.

For the origin of these results see patent EP4800033A1, “HUMANIZED ANTI-CKAP4 ANTIBODY OR ANTIGEN-BINDING FRAGMENT THEREOF” (The University of Osaka, priority 2023, dated 2025).
